Where a chain is given by its changes, count along the chain named.
B1: 374_A05 (antibody, V domains shown)
VH: EVQLLESGGGLVQPGGSLRLSCAASGFTFSDYGMNWVRQAPGKGLEWVANINYNGGYKGYADSVKGRFTISRDNSKNTLYLQMNSLRAEDTAVYYCARGATWHDTHLDYWGQGTLVTVSS
VL: DIQMTQSPSSLSASVGDRVTITCRASQSIVRYLNWYQQKPGKAPKLVIYAATSLASGVPSRFSGSGSGTDFTLTISSLQPEDFATYYCQQSYELPLTFGGGTKVEIK
B2: 368_H10 (antibody, V domains shown)
VH: B1 VH with D31S, G33S, A49S, N50S, G55S, G99S
VL: B1 VL with R31S, L33V, A51V, L94T
notes: VH and VL only
B3: 374_C03 (antibody, V domains shown)
VH: EVQLLESGGGLVQPGGSLRLSCAASGFTFDSYSMNWVRQAPGKGLEWVSGINYNSGYTSYADSVKGRFTISRDNSKNTLYLQMNSLRAEDTAVYYCARSANWHDTALDYWGQGTLVTVSS
VL: B1 VL with V30L, R31T, V47L, L54R, E93D, L94S
B4: 365_E05 (antibody, V domains shown)
VH: B3 VH with D30S, S33G, N35H, S49A, S55G
VL: B1 VL with R31S, L33V, V47L, E93D, L94N
B5: 368_F03 (antibody, V domains shown)
VH: B3 VH with S49A, S59G, R98K
VL: B1 VL with V30I, R31S, L54R, A55H, E93D, L94S
B6: 370_E09 (antibody, V domains shown)
VH: B3 VH with S31D, Y32S, N35H, G50N, S55G, S59G, R98K
VL: B1 VL with V30L, R31S, L33V, L54R
B7: 375_G10 (antibody, V domains shown)
VH: B1 VH with D31S, A49S, N50S, G59S, G99S
VL: B1 VL with R31T, L54R, A55H, E93D, L94T
notes: VH and VL only
B8: 376_G11 (antibody, V domains shown)
VH: B3 VH with D30S, T58K, N101T, A106H
VL: B1 VL with R31T, L33V, E93N
notes: VH and VL only
B9: 376_C07 (antibody, V domains shown)
VH: B3 VH with D30S, T58K, S59G, N101T, A106H
VL: B1 VL with V30L, R31S, L33V, V47L, L54R, A55H, E93D
notes: VH and VL only
B10: 370_D04 (antibody, V domains shown)
VH: B3 VH with S49A, G50N, T58K, S59G
VL: B1 VL with V30L, R31T, L54R, E93D, L94N
B11: 376_G01 (antibody, V domains shown)
VH: B3 VH with S31D, T58K, N101T, A106H
VL: B1 VL with V30L, R31S, L33V, A51V, L54R
notes: VH and VL only
B12: 373_C02 (antibody, V domains shown)
VH: B3 VH with S31D, T58K, S59G
VL: B1 VL with V30L, R31S, L33V, V47L, L54R, E93N, L94T
B13: 376_H08 (antibody, V domains shown)
VH: B1 VH with S30D, D31S, A49S, G99S
VL: B1 VL with V30L, R31T, V47L, L54R, A55H, Y92D, E93S
notes: VH and VL only
B14: 376_E09 (antibody, V domains shown)
VH: B3 VH with T58K, N101T, A106H
VL: B1 VL with V30L, R31T, V47L, L54R, A55H, E93D, L94T
notes: VH and VL only
B15: 375_G12 (antibody, V domains shown)
VH: B3 VH with S33G, N35H, G50S, S55G, N101T, A106H
VL: B1 VL with R31S, L33V, V47L, L54R, A55H, E93D, L94T
notes: VH and VL only
B16: 372_F08 (antibody, V domains shown)
VH: B3 VH with D30S, S31D, G50N, S59G
VL: B1 VL with V30L, R31T, L33V, L54R, E93D, L94T
B17: 374_C06 (antibody, V domains shown)
VH: B3 VH with S31D, G50S, T58K, S59G
VL: B1 VL with V30L, R31T, L33V, V47L, L54R, E93N, L94S
B18: 373_D10 (antibody, V domains shown)
VH: B3 VH with G50N, T58K, S59G
VL: B1 VL with V30L, R31S, L33V, V47L, L54R, E93D
B19: 373_D04 (antibody, V domains shown)
VH: B3 VH with T58K, S59G
VL: B1 VL with V30L, R31S, V47L, L54R, A55H, E93D, L94S
B20: 374_B06 (antibody, V domains shown)
VH: B3 VH with S49A, T58K, S59G, A106H
VL: B1 VL with V30L, R31T, L33V, V47L, L54R, E93D, L94T
B21: 369_F01 (antibody, V domains shown)
VH: B3 VH with D30S, S33G, S55G, T58K
VL: B1 VL with V30L, R31T, L33V, V47L, L54R
B22: 368_D10 (antibody, V domains shown)
VH: B3 VH with S33G, S49A, N101T
VL: B1 VL with V30L, R31S, L54R, E93D, L94S
B23: 370_C03 (antibody, V domains shown)
VH: B1 VH with D31S, N50G, G99S, T101N, H106A
VL: B1 VL with V30L, R31T, V47L, A50Y, A51V, S53N, L54R, A55Q, E93S, L94S
B24: 373_A10 (antibody, V domains shown)
VH: B3 VH with D30S, S33G
VL: B1 VL with V30L, R31S, L54R, E93D
B25: 365_E07 (antibody, V domains shown)
VH: B3 VH with S33G, N35H, R98K, A106H
VL: B1 VL with V30L, R31S, V47L, L54R, E93D, L94N
B26: 374_C10 (antibody, V domains shown)
VH: B1 VH with D31S, G33S, A49S, N50S
VL: B1 VL with R31T, V47L, E93N, L94T
B27: 369_D02 (antibody, V domains shown)
VH: B3 VH with D30S, S31D, G50N, S59G
VL: B1 VL with V30L, R31S, A51V, L54R, E93D, L94T
B28: 375_F01 (antibody, V domains shown)
VH: B3 VH with D30S, G50S, S59G, N101T, A106H
VL: B1 VL with R31S, L54R, E93D, L94N
notes: VH and VL only
B29: 376_A01 (antibody, V domains shown)
VH: B1 VH with S30D, D31S, A49S, K58T, G99S
VL: B1 VL with R31S, V47L, L54R, E93S, L94T
notes: VH and VL only

Assays:
[1] = target: ACVR2A on primary human myotubes (human, UniProt P27037 20-513); test: cell-based or functional assay
ACVR2A on primary human myotubes, sequence (P27037 20-513): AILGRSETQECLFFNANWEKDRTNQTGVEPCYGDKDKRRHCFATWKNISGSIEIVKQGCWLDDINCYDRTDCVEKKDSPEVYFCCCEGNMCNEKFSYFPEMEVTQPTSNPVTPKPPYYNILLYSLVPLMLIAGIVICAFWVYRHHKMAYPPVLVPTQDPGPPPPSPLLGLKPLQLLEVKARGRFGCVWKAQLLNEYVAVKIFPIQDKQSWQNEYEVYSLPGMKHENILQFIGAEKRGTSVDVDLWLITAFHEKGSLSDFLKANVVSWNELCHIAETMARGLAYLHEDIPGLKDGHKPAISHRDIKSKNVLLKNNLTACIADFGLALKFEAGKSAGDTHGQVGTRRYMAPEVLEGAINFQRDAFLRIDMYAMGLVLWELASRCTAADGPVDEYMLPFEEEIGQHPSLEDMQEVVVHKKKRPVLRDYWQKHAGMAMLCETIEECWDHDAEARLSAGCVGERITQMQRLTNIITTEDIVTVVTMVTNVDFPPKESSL

mouse ACVR2A = mouse ACVR2A (mouse, UniProt P27038 20-135, limits assumed); test: ELISA
mouse ACVR2A, sequence (P27038 20-135 limits assumed): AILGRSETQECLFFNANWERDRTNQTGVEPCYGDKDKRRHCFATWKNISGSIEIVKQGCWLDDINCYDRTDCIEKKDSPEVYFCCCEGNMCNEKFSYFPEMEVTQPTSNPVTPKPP
In short: (§1)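 ELISA measured binding of ACVR2A-specific monoclonal antibodies to human and mouse ACVR2A. Biotinylated goat anti-human kappa light chain served as positive control and human Fc as negative control.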

human ACVR2A = target: T1, human ACVR2A (human, UniProt P27037 20-135, limits assumed); test: ELISA
T1 construct: also called activin receptor, type II A
T1 sequence (P27037 20-135 limits assumed): as the sequence (P27038 20-135 limits assumed) above, with R20K, I73V counted along it
In short: as §1

[2] = target: T2, biotinylated goat anti-human kappa light chain; test: ELISA, positive control; note: test concentration or dose not given here
T2 construct: Positive control of the ELISA
In short: as §1
Throughout, for optical density: test concentration or dose not given here.

| Binder | Phospho-SMAD3 Human Skeletal Muscle GDF8 [1] | optical density (mouse ACVR2A) | optical density (human ACVR2A) | optical density [2] |
| --- | --- | --- | --- | --- |
| B1 | 0.0081 |  |  |  |
| B2 |  | 2.16 OD | 2.28 OD | 3.36 OD |
| B3 | 0.0094 |  |  |  |
| B4 | 0.244 |  |  |  |
| B5 | 0.812 |  |  |  |
| B6 | 0.0093 |  |  |  |
| B7 |  | 3.64 OD | 3.48 OD | 3.3 OD |
| B8 |  | 3.6 OD | 3.65 OD | 3.54 OD |
| B9 |  | 3.71 OD | 3.7 OD | 3.42 OD |
| B10 | 0.0074 |  |  |  |
| B11 |  | 3.66 OD | 3.34 OD | 3.18 OD |
| B12 | 0.0083 |  |  |  |
| B13 |  | 3.28 OD | 3.31 OD | 3.53 OD |
| B14 |  | 3.76 OD | 3.74 OD | 3.48 OD |
| B15 |  | 3.29 OD | 3.36 OD | 3.3 OD |
| B16 | 0.023 |  |  |  |
| B17 | 0.0138 |  |  |  |
| B18 | 0.006 |  |  |  |
| B19 | 0.0078 |  |  |  |
| B20 | 0.0407 |  |  |  |
| B21 | 0.0317 |  |  |  |
| B22 | 0.0601 |  |  |  |
| B23 | 0.0029 |  |  |  |
| B24 | 0.0111 |  |  |  |
| B25 | 0.518 |  |  |  |
| B26 | 0.0582 |  |  |  |
| B27 | 0.0135 |  |  |  |
| B28 |  | 3.46 OD | 3.16 OD | 2.96 OD |
| B29 |  | 3.66 OD | 3.24 OD | 2.98 OD |
